# Assay results: article PMC11480844 (2024)
# B1: H2-Kb / Ed28 (parent complex)
# chain 1: AQSVTQPDARVTVSEGASLQLRCKYSYFGTPYLFWYVQYPRQGLQLLLKYYPGDPVVQGVNGFEAEFSKSNSSFHLRKASVHWSDWAVYFCAVSPGSGGKLTLGAGTRLQVNL
# chain 2: DSGVVQSPRHIIKEKGGRSVLTCIPISGHSNVVWYQQTLGKELKFLIQHYEKVERDKGFLPSRFSVQQFDDYHSEMNMSALELEDSAMYFCASSPRASDYTFGSGTRLLVI
# chain 3: not shown
# chain 4: IQKTPQIQVYSRHPPENGKPNILNCYVTQFHPPHIEIQMLKNGKKIPKVEMSDMSFSKDWSFYILAHTEFTPTETDTYACRVKHDSMAEPKTVYWDRDM
# chain 5: SIINFEKL
# B2: H2-Kb / F4 (parent complex)
# chain 1: QQQVRQSPQSLTVWEGETAILNCSYEDSTFNYFPWYQQFPGEGPALLISIRSVSDKKEDGRFTIFFNKREKKLSLHITDSQPGDSATYFCAAMSNYNVLYFGSGTKLTVEP
# chain 2: ETAVFQTPNYHVTQVGNEVSFNCKQTLGHDTMYWYKQDSKKLLKIMFSYNNKQLIVNETVPRRFSPQSSDKAHLNLRIKSVEPEDSAVYLCASSARQNSPLYFAAGTRLTVT
# chain 3: not shown
# chain 4: B1 chain 4
# chain 5: SIINFEKL
# Variants of: B1
# Assay: % of reporter cells activated (NFAT-GFP), raw
# Also: test concentration or dose not given here.
row,Variant,ratio to parent
1,chain 5 F5I,0.388
2,chain 5 F5S,0.867
3,chain 5 F5T,1.17
4,chain 5 F5M,0.741
5,chain 5 F5N,0.742
6,chain 5 I2Q,0.574
7,chain 5 I2V,1.3
8,chain 5 I2T,1.34
9,chain 5 I2K,0.837
10,chain 5 E6G,0.651
11,chain 5 E6Y,0.0885
12,chain 5 E6M,0.0743
13,chain 5 E6R,0.0718
14,chain 5 E6V,0.0103
15,chain 5 E6N,0.22
16,chain 5 E6K,0.702
17,chain 5 L8D,0.475
18,chain 5 L8K,0.584
19,chain 5 L8T,0.832
20,chain 5 L8R,0.915
21,chain 5 N4Q,0.00495

row,Variant,ratio to parent
1,chain 5 N4L,0.329
2,chain 5 N4Y,0.0195
3,chain 5 N4G,0.00642
4,chain 5 N4R,0.227
5,chain 5 I3M,0.959
6,chain 5 I3C,0.894
7,chain 5 I3P,0.898
8,chain 5 I3T,1.31
9,chain 5 I3N,1.16
10,chain 5 I3G,0.836
11,chain 5 K7M,0.104
12,chain 5 K7N,0.242
13,chain 5 K7P,0.145
14,chain 5 K7F,0.0786
15,chain 5 K7D,0.00937
16,chain 5 K7T,0.115
17,chain 5 K7V,0.159
18,chain 5 S1Q,0.81
19,chain 5 S1W,0.723
20,chain 5 S1K,0.445
21,chain 5 S1C,0.59

# The next lines start with the values.
row,ratio to parent,Variant
1,0.774,chain 5 F5R
2,0.455,chain 5 F5Q
3,0.772,chain 5 F5V
4,1.06,chain 5 I2G
5,0.659,chain 5 I2H
6,1.2,chain 5 I2P
7,1.01,chain 5 I2F
8,0.702,chain 5 I2W
9,1.14,chain 5 I2S
10,0.981,chain 5 I2E
11,0.857,chain 5 I2M
12,0.58,chain 5 I2Y
13,0.013,chain 5 E6F
14,0.533,chain 5 E6D
15,0.594,chain 5 L8N
16,0.947,chain 5 L8G
17,0.709,chain 5 L8A
18,0.902,chain 5 L8Y
19,1.02,chain 5 L8F
20,0.563,chain 5 L8S
21,0.00709,chain 5 N4M
22,0.167,chain 5 N4I
23,0.0123,chain 5 N4F

row,ratio to parent,Variant
1,0.0455,chain 5 N4H
2,0.0271,chain 5 N4S
3,0.0349,chain 5 N4T
4,0.00775,chain 5 N4W
5,0.369,chain 5 I3Y
6,0.592,chain 5 I3W
7,0.727,chain 5 I3D
8,0.449,chain 5 I3Q
9,0.6,chain 5 I3F
10,0.185,chain 5 K7G
11,0.162,chain 5 K7A
12,0.244,chain 5 K7L
13,0.496,chain 5 K7R
14,0.013,chain 5 K7E
15,0.141,chain 5 K7Q
16,0.321,chain 5 S1R
17,0.965,chain 5 S1F
18,0.293,chain 5 S1N
19,0.798,chain 5 S1E
20,0.693,chain 5 S1P
21,0.908,chain 5 S1M
22,0.433,chain 5 S1I

# Variants of: B2
# Assay: % of reporter cells activated (NFAT-GFP), raw
row,Variant,ratio to parent
1,chain 5 K7S,0.261
2,chain 5 K7I,0.771
3,chain 5 K7A,0.222
4,chain 5 K7M,0.651
5,chain 5 K7L,0.85
6,chain 5 I3F,1
7,chain 5 I3W,0.358
8,chain 5 I3G,0.0625
9,chain 5 I3R,0.0634
10,chain 5 F5A,0.967
11,chain 5 F5S,0.767
12,chain 5 F5W,0.083
13,chain 5 F5V,1.38
14,chain 5 I2S,1.05
15,chain 5 I2K,0.0728
16,chain 5 I2G,1.45
17,chain 5 I2L,1.25

row,Variant,ratio to parent
1,chain 5 E6Q,0.0246
2,chain 5 E6D,0.987
3,chain 5 E6S,0.0357
4,chain 5 L8P,0.48
5,chain 5 L8V,0.457
6,chain 5 L8M,0.723
7,chain 5 L8S,0.515
8,chain 5 L8R,0.276
9,chain 5 L8Q,0.759
10,chain 5 L8Y,0.898
11,chain 5 S1K,0.0638
12,chain 5 S1H,0.0509
13,chain 5 S1C,0.0254
14,chain 5 N4D,0.0277
15,chain 5 N4F,0.0339
16,chain 5 N4K,0.0286
17,chain 5 N4H,0.0344

# Other lines, results leading:
row,ratio to parent,Variant
1,0.101,chain 5 K7D
2,0.628,chain 5 K7T
3,1.23,chain 5 K7R
4,0.234,chain 5 K7G
5,0.726,chain 5 K7F
6,0.0638,chain 5 I3Q
7,0.0344,chain 5 I3D
8,0.204,chain 5 I3T
9,0.517,chain 5 I3Y
10,0.517,chain 5 F5Q
11,0.109,chain 5 F5K
12,0.225,chain 5 F5N
13,0.807,chain 5 I2E
14,0.181,chain 5 I2Q
15,0.118,chain 5 E6K
16,0.00942,chain 5 E6I
17,0.537,chain 5 E6C
18,0.0219,chain 5 E6T
19,0.0121,chain 5 E6L
20,0.0563,chain 5 E6N
21,0.395,chain 5 L8A
22,0.491,chain 5 L8W
23,0.47,chain 5 L8N
24,0.0183,chain 5 S1W
25,0.0438,chain 5 S1P
26,0.0308,chain 5 S1N
27,0.0232,chain 5 S1T
28,0.0402,chain 5 N4T
29,0.0317,chain 5 N4S
